These results are taken from patent publication US5871954A, “Fatty acid analog enzyme substrates” (Washington University, priority 1993, dated 1999).

Data set [1] deals with known yeast myristoylprotein of Mr 20 kDa. Put plainly: competition for incorporation of [3H]myristate into a yeast myristoylprotein. It is filed as cell-based, Saccharomyces cerevisiae strain BJ405. Particulars: in words. How it is done: (§1) Saccharomyces cerevisiae strain BJ405 [MATα, trpl, prbl, prcl, pep4-3; Hemmings et al., Proc. Natl. Acad. Sci. USA 78, 435-439 (1981)] (previously referred to as JR153) was grown to mid-log phase (OD660nm=1.0-1.2) in YPD medium (1% yeast extract/2% Bactopeptone/2% Dextrose) at 30° C. in a rotary shaker water bath. Cells were pretreated with Cerulenin at 2 μg/ml for 15 minutes and then incubated for 20-45 minutes with unlabeled myristate, palmitate or fatty acid analog at 100 μM in the presence of either 5 μM [9,10-^3 H(N)]-myristate (22.4 Ci/mmol) or L-[^35 S]methionine (1106 Ci/mmol) at 30 μCi/ml of culture.
Cells were cooled on ice 5 minutes, pelleted at 10,000×g, then broken and extracted by the method of Towler et al., Proc. Natl. Acad. Sci. USA 83, 2812-2816 (1986). Total protein synthesis was assayed by trichloroacetic acid (TCA) precipitation. Proteins were separated by SDS-12% polyacrylamide gel electrophoresis, and [^3 H]fatty acid incorporation into cellular acyl-proteins was assayed by autoradiography followed by laser densitometry.

A short description of data set [2]: 2-octanol/water partition. It is filed as physicochemical. Here is the method:
For these Examples, each analog synthesized is characterized by ^1 H and 13C NMR as well as mass spectroscopy. The analogs are then characterized kinetically as NMT substrates. Briefly, fatty acid analogs are converted to their CoA esters with Pseudomonas CoA ligase and incubated with the iodinated peptide GNAAS[^125 I]YRR and a source of NMT. […] The radiolabelled peptide is then used at concentrations which will lead to 50% enzyme saturation (i.e., at its Km) for the determination of fatty acid analog kinetic characteristics. Representative analogs with sulfur or oxygen in the backbone of the fatty acid chain serve as good substrates for NMT in vitro and will compete for incorporation of ^3 H labelled myri-state into yeast proteins in vivo. In addition, these analogs differ markedly in hydrophobicity from myri-state as measured both by C18 reverse phase HPLC elution profiles and by 2-octanol/water partition coefficients. The analog CH3 O (CH2)11 COOH, for example, partitions into water 20 fold better than myristate. It is believed that these analogs will be incorporated into mammalian acylproteins in vivo and that their incorporation into these proteins will drastically alter protein processing or targeting. […]

Data set [3] deals with Saccharomyces cerevisiae strain BJ405. Put plainly: toxicity / growth rate of yeast cells. It is filed as cell-based. Here is the method: as §1
Furthermore, 100 μM myristate and 100 μM analog produced a similar modest reduction (10-15%) in total protein synthesis (measured by the incorporation of [^35 S]methionine into TCA precipitable protein) compared to control cells which were not exposed to exogenous fatty acid.

Data set [4] addresses T1, yeast NMT (Saccharomyces cerevisiae, UniProt P14743).
T1 construct: 11,000-fold purified preparation of yeast NMT; from tissue; host or cells: yeast
T1 sequence (P14743 1-455): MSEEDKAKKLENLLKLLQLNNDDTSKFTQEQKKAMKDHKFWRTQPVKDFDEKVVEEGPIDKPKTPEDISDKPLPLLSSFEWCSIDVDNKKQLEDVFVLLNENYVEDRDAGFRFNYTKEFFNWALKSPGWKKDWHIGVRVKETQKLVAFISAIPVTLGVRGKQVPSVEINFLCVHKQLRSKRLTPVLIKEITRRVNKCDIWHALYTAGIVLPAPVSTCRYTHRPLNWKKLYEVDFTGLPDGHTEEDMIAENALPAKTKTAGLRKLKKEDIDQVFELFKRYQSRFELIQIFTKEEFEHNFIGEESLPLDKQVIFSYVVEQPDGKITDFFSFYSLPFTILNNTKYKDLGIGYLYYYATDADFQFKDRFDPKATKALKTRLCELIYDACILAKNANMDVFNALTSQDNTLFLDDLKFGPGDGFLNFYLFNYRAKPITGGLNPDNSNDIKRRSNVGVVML
Kind of data set: in vitro yeast NMT assay, kinetics of fatty acid analog substrates with iodinated peptide GNAAS[125I]YRR. It is filed as biochemical. Particulars: Table 2; relative to myristate control 100%; peptide at its Km. The source says:
(§2) Similar results were obtained using an 11,000-fold purified preparation of yeast NMT [Towler et al., Proc. Natl. Acad. Sci. USA 84, 2708-2712 (1987)].
(§3) Other illustrative examples of the oxy- and thio-substituted fatty acid analog substrate compounds of the invention were synthesized in Examples 6 to 14 and tested in Example 15 as substrates for the yeast NMT.
(§4) For these Examples, each analog synthesized is characterized by ^1 H and 13C NMR as well as mass spectroscopy. The analogs are then characterized kinetically as NMT substrates. Briefly, fatty acid analogs are converted to their CoA esters with Pseudomonas CoA ligase and incubated with the iodinated peptide GNAAS[^125 I]YRR and a source of NMT. […] The radiolabelled peptide is then used at concentrations which will lead to 50% enzyme saturation (i.e., at its Km) for the determination of fatty acid analog kinetic characteristics. Representative analogs with sulfur or oxygen in the backbone of the fatty acid chain serve as good substrates for NMT in vitro and will compete for incorporation of ^3 H labelled myri-state into yeast proteins in vivo. In addition, these analogs differ markedly in hydrophobicity from myri-state as measured both by C18 reverse phase HPLC elution profiles and by 2-octanol/water partition coefficients. The analog CH3 O (CH2)11 COOH, for example, partitions into water 20 fold better than myristate. It is believed that these analogs will be incorporated into mammalian acylproteins in vivo and that their incorporation into these proteins will drastically alter protein processing or targeting. It is further believed that the incorporation of fatty acid analogs of both myristate and palmitate into ester linked and phosphatidyl inositol glycan linked acylproteins will also dramatically alter their properties. Since many viral proteins and oncogenes are acylated, these compounds represent a new class of potential antiviral and antineoplastic agents.

Substrate in data set [5]: C#CCOCCCCCCCCCC(=O)O
Described as above. It is filed as biochemical. As to conditions: other: Table 2; peptide at its Km.
Source text: as §2, §3, §4

Substrate in data set [6]: CCCOCCCCCCCCCC(=O)O
Described as above. The class given is biochemical. As to conditions: other: Table 2; peptide at its Km.
Source text: as §2, §3, §4

Substrate in data set [7]: CCOCCCCCCCCCCC(=O)O
Described as above. The class given is biochemical. Particulars: other: Table 2; peptide at its Km.
Source text: as §2, §3, §4

Substrate in data set [8]: CCSCCCCCCCCCCC(=O)O
The description is as above. It is filed as biochemical. As to conditions: other: Table 2; peptide at its Km.
Source text: as §2, §3, §4

Substrate in data set [9]: CCCSCCCCCCCCCC(=O)O
Described as above. It is filed as biochemical. Particulars: other: Table 2; peptide at its Km.
Source text: as §2, §3, §4

Substrate in data set [10]: CCCCCCCCOCCCCC(=O)O
The description is as above. It is filed as biochemical. As to conditions: other: Table 2; peptide at its Km.
Source text: as §2, §3, §4

Substrate in data set [11]: COCCCCCCCCCCCC(=O)O
The description is as above. The class given is biochemical. As to conditions: other: Table 2; peptide at its Km.
Source text: as §2, §3, §4

Substrate in data set [12]: CCCCCCCCCCCCCC(=O)O
The data set is described as above. It is filed as biochemical. Particulars: other: Table 2; peptide at its Km.
Source text: as §2, §3, §4

Substrate in data set [13]: CCCCOCCCCCCCCCCC(=O)O
Described as above. It is filed as biochemical. As to conditions: other: Table 2; peptide at its Km.
Source text: as §2, §3, §4

Substrate in data set [14]: CCCCCCCCSCCCCC(=O)O
Described as above. It is filed as biochemical. Particulars: other: Table 2; peptide at its Km.
Source text: as §2, §3, §4

Substrate in data set [15]: COCCCCCCCCCCC(=O)O
Described as above. It is filed as biochemical. Particulars: other: Table 2; peptide at its Km.
Source text: as §2, §3, §4

For the molecule `COCCCCCCCCCCCC(=O)O` [CH3 O(CH2)11 COOH, 12-(Methoxy)dodecanoic acid], the “entry into yeast / competition with labeled myristate for incorporation into yeast protein” value in [1] is “can successfully enter yeast and compete with labeled myristate for incorporation into a known myristoylprotein”. In addition, the “partition into water vs myristate” value in data set [2] is listed as 20 fold. In addition, the “growth rates of cells vs 100 μM myristate” value in data set [3] was “No difference in the growth rates”. Moreover, the toxicity to cells entry in data set [3] (100 μM) is reported as “does not appear to be toxic to cells”. For the same molecule, in data set [4], the “Acyl CoA Vm” value is recorded as ~ 110%.

B1: yeast NMT (Saccharomyces cerevisiae S288C) (protein)
chain: MSEEDKAKKLENLLKLLQLNNDDTSKFTQEQKKAMKDHKFWRTQPVKDFDEKVVEEGPIDKPKTPEDISDKPLPLLSSFEWCSIDVDNKKQLEDVFVLLNENYVEDRDAGFRFNYTKEFFNWALKSPGWKKDWHIGVRVKETQKLVAFISAIPVTLGVRGKQVPSVEINFLCVHKQLRSKRLTPVLIKEITRRVNKCDIWHALYTAGIVLPAPVSTCRYTHRPLNWKKLYEVDFTGLPDGHTEEDMIAENALPAKTKTAGLRKLKKEDIDQVFELFKRYQSRFELIQIFTKEEFEHNFIGEESLPLDKQVIFSYVVEQPDGKITDFFSFYSLPFTILNNTKYKDLGIGYLYYYATDADFQFKDRFDPKATKALKTRLCELIYDACILAKNANMDVFNALTSQDNTLFLDDLKFGPGDGFLNFYLFNYRAKPITGGLNPDNSNDIKRRSNVGVVML
notes: 11,000-fold purified preparation of yeast NMT; from tissue; host or cells: yeast
As to B1, the Km in [5] came out at 6.5 µM; in [6], 6.1 µM; in [7], 1.8 µM; in data set [8], 1.4 µM; in [9], 1.5 µM; in [10] it was 1.6 µM. In addition, the Km in data set [11] is 2 µM; in data set [12], 0.6 µM; in data set [13], 1 µM; in data set [14], 1.5 µM; in data set [15], 6.9 µM.

The Km is the substrate concentration at which the rate is half of its maximum.
